Here are results for 4 substances from PMC4338318.

One experiment addresses FLAG-seipin-Myc (human) (UniProt Q96G97). Briefly: atomic force microscopy (AFM); complexes isolated by anti-Myc immunoaffinity from co-transfected tsA 201 cells and eluted; tapping mode in air; particle volumes and decorations.
Experiment [1] addresses Seipin-Myc (wild type) (human) (UniProt Q96G97). Briefly: atomic force microscopy (AFM); complexes isolated by sequential anti-FLAG and anti-Myc immunoaffinity from triply transfected tsA 201 cells; tapping mode in air.

In the case of “FLAG-seipin-Myc (from UniProt Q96G97 1-398) (natural protein)”, the stoichiometry N in the experiment with FLAG-seipin-Myc (human) was found to be 12.

On to “HA-lipin 1α (from UniProt Q14693 1-890) (enzyme)”, for which, in experiment [1], the percent of seipin particles doubly decorated by AGPAT2 plus lipin 1 is 10.1%. The same substance had a percent of seipin particles doubly decorated in the experiment with FLAG-seipin-Myc (human) of 9%.

For “FLAG-AGPAT2 (from UniProt O15120 24-278) (enzyme)”, the percent of seipin particles doubly decorated by AGPAT2 plus lipin 1 in experiment [1] amounted to 10.1%. In the experiment with FLAG-seipin-Myc (human), this substance registered a percent of seipin particles doubly decorated of 12.8% and a percent of seipin particles triply decorated of 1%.

On to “Seipin-Myc (wild type) (from UniProt Q96G97 1-398) (natural protein)”, for which the stoichiometry N in experiment [1] worked out at 12.

Broadly, the stoichiometry N is a count of units in the complex or per binding partner.
